# Tests used:
# [1] = Plasma exposure after the last dose in DIO mini-pigs; assay type: in vivo, Göttingen mini-pigs; settings: combination group, liraglutide […]
# Description: The CCK derivative was dissolved in the following buffer: 8 mM phosphate, 184 mM propylene glycol, 58 mM phenol, pH 7.4 concentrations ranging from 2000-10000 nmol/mL corresponding to dose volumes ranging from 0.00075-0.001 mL/kg. Liraglutide was dissolved in 8 mM phosphate, 184 mM propylenglycol, 58 mM phenol, pH 8.15 (1600 nmol/mL), dose volume was 0.001 mL/kg and this formulation also served as a vehicle for all 3 treatment groups. Animals were dosed subcutaneously once daily with vehicle, CCK derivative, liraglutide, or liraglutide in combination with the CCK derivative (given as two separate injections in each side of the neck). After the last dose blood samples were obtained in EDTA coated tubes at selected time points for up to 480 hours after dosing. Blood was sampled through central-venous catheters implanted under general anaesthesia after 11 weeks of treatment.
# The resulting plasma was pipetted into Micronic tubes on dry ice, and kept at −20° C. until analysed for plasma exposure of liraglutide and the CCK derivative. Plasma content of the CCK derivative was measured using LC-MS method II, as described in Example 93. Plasma content of liraglutide was measured using LOCI (Luminescence Oxygen Channeling Immunoasssay). LOCI is generally described for the determination of insulin by Poulsen and Jensen in Journal of Biomolecular Screening 2007, vol. 12, p. 240-247. The donor beads were coated with streptavidin, while acceptor beads were conjugated with a monoclonal antibody recognising a C-terminal epitope of the peptide. Another monoclonal antibody, specific for the N-terminus, was biotinylated. The three reactants were combined with the analyte and formed a two-sited immuno-complex. Illumination of the complex released singlet oxygen atoms from the donor beads, which were channelled into the acceptor beads and triggered chemiluminescence which was measured in an Envision plate reader. The amount of light was proportional to the concentration of the compound.
# [2] = biological target: T1, human cholecystokinin-1 receptor (human, UniProt P32238 1-428); test: cell-based or functional assay
# T1 sequence (looked up): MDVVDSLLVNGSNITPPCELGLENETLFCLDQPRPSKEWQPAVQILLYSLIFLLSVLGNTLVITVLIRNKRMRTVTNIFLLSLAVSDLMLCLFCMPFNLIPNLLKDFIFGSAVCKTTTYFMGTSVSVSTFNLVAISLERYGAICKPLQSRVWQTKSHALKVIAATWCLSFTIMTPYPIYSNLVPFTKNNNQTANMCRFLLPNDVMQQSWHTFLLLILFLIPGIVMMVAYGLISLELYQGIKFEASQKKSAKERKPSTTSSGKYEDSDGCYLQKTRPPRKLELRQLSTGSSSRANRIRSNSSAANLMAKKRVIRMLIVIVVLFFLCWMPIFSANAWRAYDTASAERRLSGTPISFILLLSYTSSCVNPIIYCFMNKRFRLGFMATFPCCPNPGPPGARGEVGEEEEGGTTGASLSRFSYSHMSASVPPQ
# [3] = biological target: T2, human cholecystokinin-2 receptor (human, UniProt P32239 1-447); test: cell-based or functional assay
# T2 sequence (looked up): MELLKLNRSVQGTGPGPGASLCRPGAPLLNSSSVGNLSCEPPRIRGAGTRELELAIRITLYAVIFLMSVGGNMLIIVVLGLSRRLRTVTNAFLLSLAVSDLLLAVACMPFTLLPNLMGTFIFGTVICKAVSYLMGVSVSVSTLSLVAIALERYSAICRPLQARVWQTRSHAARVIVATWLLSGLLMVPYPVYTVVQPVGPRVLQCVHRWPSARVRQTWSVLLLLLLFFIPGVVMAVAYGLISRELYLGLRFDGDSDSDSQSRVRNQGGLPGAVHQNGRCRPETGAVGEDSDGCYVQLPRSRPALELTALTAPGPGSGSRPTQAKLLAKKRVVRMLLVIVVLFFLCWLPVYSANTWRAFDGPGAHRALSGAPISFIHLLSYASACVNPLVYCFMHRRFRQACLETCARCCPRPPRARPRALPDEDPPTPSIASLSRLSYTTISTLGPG
# [4] = biological target: T1, human cholecystokinin-1 receptor; test: ratio of SPA IC50s, reference CCK-2R
"AUCexposure (0-24 h) after last dose, Liraglutide [1]",CCK-1R selectivity (EC50 (CCK-2R)/EC50 (CCK-1R)) [2],EC50 (CCK-1R) [2] [nM],EC50 (CCK-2R) [3] [nM],CCK-1R binding selectivity (IC50 (CCK-2R)/IC50 (CCK-1R)) [4],Compound
Liraglutide: 399872 pM*h,–,–,–,–,"CCCCCCCCCCCCCCCC(=O)N[C@@H](CCC(=O)NCCCC[C@H](NC(=O)[C@H](C)NC(=O)[C@H](C)NC(=O)[C@H](CCC(N)=O)NC(=O)CNC(=O)[C@H](CCC(=O)O)NC(=O)[C@H](CC(C)C)NC(=O)[C@H](Cc1ccc(O)cc1)NC(=O)[C@H](CO)NC(=O)[C@H](CO)NC(=O)[C@@H](NC(=O)[C@H](CC(=O)O)NC(=O)[C@H](CO)NC(=O)[C@@H](NC(=O)[C@H](Cc1ccccc1)NC(=O)[C@@H](NC(=O)CNC(=O)[C@H](CCC(=O)O)NC(=O)[C@H](C)NC(=O)[C@@H](N)Cc1cnc[nH]1)[C@@H](C)O)[C@@H](C)O)C(C)C)C(=O)N[C@@H](CCC(=O)O)C(=O)N[C@@H](Cc1ccccc1)C(=O)N[C@H](C(=O)N[C@@H](C)C(=O)N[C@@H](Cc1c[nH]c2ccccc12)C(=O)N[C@@H](CC(C)C)C(=O)N[C@H](C(=O)N[C@@H](CCCNC(=N)N)C(=O)NCC(=O)N[C@@H](CCCNC(=N)N)C(=O)NCC(=O)O)C(C)C)[C@@H](C)CC)C(=O)O [Liraglutide, reference compound]"
–,2100,0.14,290,84000,Asp-sTyr-Nle-Gly-Trp-Nle-DMeAsp-1Nal-amide (peptide)

# — US20170008928A1, “NOVEL PEPTIDES AND PEPTIDE DERIVATIVES AND USES THEREOF” (Novo Nordisk A/S, priority 2015, published 2017)
